pIC50: −log10 of the molar value.
Target: recombinant human CD74 (C27S) (human) (UniProt P04233)
Experiment: ELISA

| pIC50 | Substance |
| --- | --- |
| 5.79 | DRα1-hMOG-35-55 (from UniProt P01903 15-97) |
| 6.03 | DRα1-mMOG-35-55 |
